According to PMC3745222:

Target: full-length GST-Smad3 (UniProt P84022)
Test: pull-down

Sequence of UniProt P84022 (P84022 whole entry): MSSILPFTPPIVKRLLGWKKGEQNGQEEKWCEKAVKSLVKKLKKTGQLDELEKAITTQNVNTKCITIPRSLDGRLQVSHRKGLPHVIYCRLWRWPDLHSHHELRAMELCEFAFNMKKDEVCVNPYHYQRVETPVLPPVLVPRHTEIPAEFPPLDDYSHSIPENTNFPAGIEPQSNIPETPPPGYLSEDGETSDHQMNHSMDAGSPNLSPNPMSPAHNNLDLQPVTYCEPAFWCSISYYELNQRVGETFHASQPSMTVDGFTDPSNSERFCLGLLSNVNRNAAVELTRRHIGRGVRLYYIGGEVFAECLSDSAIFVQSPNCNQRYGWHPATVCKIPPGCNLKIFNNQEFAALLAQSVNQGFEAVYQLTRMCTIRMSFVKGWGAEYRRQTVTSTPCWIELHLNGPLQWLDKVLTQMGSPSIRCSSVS

For “intracellular Notch1 (ICN1), the active form of Notch1 (domain or fragment)”, the fold increase of binding in β2SP shRNA cells against control cells was 2 fold.
